In patent US20180244785A1 (MERRIMACK PHARMACEUTICALS, published 2018):

T1: 6His-Fc-FGFR1c (human, UniProt P11362 141-376)
T1 construct: not shown: 6His tag and Fc as named in '6His-Fc-FGFR'
T1 sequence: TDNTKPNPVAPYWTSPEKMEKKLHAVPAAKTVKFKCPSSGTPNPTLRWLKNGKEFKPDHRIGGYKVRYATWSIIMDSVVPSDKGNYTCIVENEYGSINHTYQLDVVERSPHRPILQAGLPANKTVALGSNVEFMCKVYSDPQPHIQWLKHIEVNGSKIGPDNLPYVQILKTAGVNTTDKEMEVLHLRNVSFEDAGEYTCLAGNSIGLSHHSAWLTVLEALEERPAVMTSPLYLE

T2: 6His-Fc-FGFR4 (human, UniProt P22455 144-369)
T2 construct: not shown: 6His tag and Fc as named in '6His-Fc-FGFR'
T2 sequence: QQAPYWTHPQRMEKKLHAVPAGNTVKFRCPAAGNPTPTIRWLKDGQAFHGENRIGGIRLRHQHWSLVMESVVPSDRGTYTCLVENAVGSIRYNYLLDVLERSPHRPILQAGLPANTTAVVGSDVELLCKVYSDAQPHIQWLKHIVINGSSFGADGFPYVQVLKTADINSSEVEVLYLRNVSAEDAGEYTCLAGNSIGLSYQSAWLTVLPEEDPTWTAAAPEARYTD


Assays:
[1] = target: FGFR1 on tumour cells (UniProt P11362 22-822); assay: cell-based or functional assay
FGFR1 on tumour cells, sequence (P11362 22-822): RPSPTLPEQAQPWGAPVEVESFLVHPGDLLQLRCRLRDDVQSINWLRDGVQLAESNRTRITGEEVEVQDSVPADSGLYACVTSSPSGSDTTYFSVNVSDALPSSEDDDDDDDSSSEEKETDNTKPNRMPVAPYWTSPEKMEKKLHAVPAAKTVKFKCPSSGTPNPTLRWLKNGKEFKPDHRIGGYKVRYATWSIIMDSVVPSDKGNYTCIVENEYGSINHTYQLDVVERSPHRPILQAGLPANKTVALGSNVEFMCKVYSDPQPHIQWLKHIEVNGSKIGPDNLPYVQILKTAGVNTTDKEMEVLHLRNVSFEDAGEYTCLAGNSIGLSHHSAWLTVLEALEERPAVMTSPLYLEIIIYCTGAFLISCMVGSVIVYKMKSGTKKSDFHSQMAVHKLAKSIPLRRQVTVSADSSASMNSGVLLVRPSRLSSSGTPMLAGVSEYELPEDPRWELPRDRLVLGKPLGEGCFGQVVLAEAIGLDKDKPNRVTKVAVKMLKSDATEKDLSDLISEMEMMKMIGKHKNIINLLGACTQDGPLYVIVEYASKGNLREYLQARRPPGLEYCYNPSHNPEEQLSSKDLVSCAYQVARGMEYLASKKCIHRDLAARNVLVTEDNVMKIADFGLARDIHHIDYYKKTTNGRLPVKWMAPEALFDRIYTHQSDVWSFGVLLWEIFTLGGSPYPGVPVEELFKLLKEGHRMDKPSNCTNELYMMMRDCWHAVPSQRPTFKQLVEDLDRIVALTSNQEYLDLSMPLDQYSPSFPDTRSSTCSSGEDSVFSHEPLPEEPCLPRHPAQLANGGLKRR

[2] = target: T1, 6His-Fc-FGFR1c; assay: competition ELISA, blocks 6His-Fc-FGFR1c binding to coated FGF2
Procedure: (§1) ELISA plates were coated with 50 ug/ml Heparin Sulfate (HSPG) (Sigma Aldrich) and incubated overnight at room temperature. Plates were then washed extensively with PBS containing 0.05% v/v Tween20 (PBST). Plates were then blocked with 2.5% BSA in PBST for one hour and washed extensively as before. 40-60 μL of FGF1 or FGF2 was then added to each well at 40 μg/ml and allowed to bind at room temperature for 2 hours. Plates were then washed extensively with PBST as before. Stock solutions of each 6His-Fc-FGFR (FGFR1-4) were prepared at 500 ng/ml in 2% v/v BSA-PBST and each antibody was prepared as a 2×-dilution series in 2% v/v BSA-PBST. Antibodies dilution series and 6His-Fc-FGFR1-4 were diluted in a 1:1 fashion and immediately added to the relative wells of the plate and allowed to bind for 2 hours at room temperature. Plates were washed extensively as before with PBST and the remaining fraction of bound 6His-Fc-FGFR was detected using a polyclonal-anti-His-6-HRP conjugated antibody (Abcam) for one hour at room temperature. After extensive washing with PBST, 50 μl of Pierce Chemiluminescent substrate (Thermo Fisher Scientific, Rockford, USA) was added and plates were measured on an Envision plate reader (Perkin Elmer). Raw data was background corrected and plotted using Prism software. […]

[3] = target: T2, 6His-Fc-FGFR4; assay: competition ELISA, blocks 6His-Fc-FGFR4 binding to coated FGF2
Procedure: as §1

| Binder | IC50 of pERK inhibition (AlphaScreen SureFire) in NCI-H1581 cells [1] [nM] | IC50 [2] [nM] | IC50 [3] [nM] |
| --- | --- | --- | --- |
| Ab16 (antibody, human IgG2, kappa, V domains shown, format in the assays not spelled out) VH: EVQLLESGGGVVQPGRSLRLSCAASGFTFSSYAMHWVRQAPGKGLEWVAVISYDGSNKYYADSVKGRFTISRDNSKNTLSLQMNSLRVEDTAIYYCVRGAGRGYTRGPDGFDIWGQGTMVTVSS VL: DIVMTQTPLSLSVTPGQPASISCKSSRSLLHSDGKTYVYWYVQKSGQPPQLLIYELSNRFSGVPDRFSGSGSRTDFTLKISRVEAEDVGVYYCMQYIEAPLTFGGGTKVEIKR | 3.88 | 6.28 | 40.1 |
| Ab27 (antibody, human IgG2, kappa, V domains shown, format in the assays not spelled out) VH: EVQLLESGGGVVQPGRSLRLSCAASGFTFSSYAMHWVRQAPGKGLEWVAVISYDGSNKYYADSVKGRFTISRDNSKNTLSLQMNSLRVEDTAIYYCVRGAGRGYTLGPDGFDIWGQGTMVTVSS VL: DIVMTQTPLSLSVTPGQPASISCKSSRSLLHSDGKTYVYWYVQKSGQPPQLLIYELSNRFSGVPDRFSGSGSRTDFTLKISRVEAEDVGVYYCMQYIEAPLTFGGGTKVEIKR | 1.77 | 5.45 | 30.1 |
| Ab83 (antibody, human IgG2, kappa, V domains shown, format in the assays not spelled out) VH: EVQLLESGGGVVQPGRSLRLSCAASGFTFSSYAMHWVRQAPGKGLEWVAVISYDGSNKYYADSVKGRFTISRDNSKNTLSLQMNSLRVEDTAIYYCVRGAGRGFPYGPDGFDIWGQGTMVTVSS VL: DIVMTQTPLSLSVTPGQPASISCKSSRSLLHSDGKTYVYWYVQKSGQPPQLLIYELSNRFSGVPDRFSGSGSRTDFTLKISRVEAEDVGVYYCMQYIEAPLTFGGGTKVEIKR | – | 9.23 | 154 |
| Ab76 (antibody, human IgG2, kappa, V domains shown, format in the assays not spelled out) VH: EVQLLESGGGVVQPGRSLRLSCAASGFDFAGYAMHWVRQAPGKGLEWVAVISYDGSNKYYADSVKGRFTISRDNSKNTLSLQMNSLRVEDTAIYYCVRGAGRGLTYGPDGFDIWGQGTMVTVSS VL: DIVMTQTPLSLSVTPGQPASISCKSSRSLLHSDGKTYVYWYVQKSGQPPQLLIYELSNRFSGVPDRFSGSGSRTDFTLKISRVEAEDVGVYYCMQYIEAPLTFGGGTKVEIKR | – | 6.3 | 37.3 |
| Ab34 (antibody, human IgG2, kappa, V domains shown, format in the assays not spelled out) VH: EVQLLESGGGVVQPGRSLRLSCAASGFTFSSYAMHWVRQAPGKGLEWVAVISYDGSNKYYADSVKGRFTISRDNSKNTLSLQMNSLRVEDTAIYYCVRGAGRGYTRGPDGFDIWGQGTMVTVSS VL: DIVMTQTPLSLSVTPGQPASISCTSSRSLLHSDGKTYVYWYVQKSGQPPQLLIYELSNRFSGVPDRFSGSGSRTDFTLKISRVEAEDVGVYYCMQYVEAPLTFGGGTKVEIKR | 4.83 | 5.23 | 14.3 |
| Ab88 (antibody, human IgG2, kappa, V domains shown, format in the assays not spelled out) VH: EVQLLESGGGVVQPGRSLRLSCAASGFTFSSYAMHWVRQAPGKGLEWVAVISYDGSNKYYADSVKGRFTISRDNSKNTLSLQMNSLRVEDTAIYYCVRGAGRGLTYGPDGFDIWGQGTMVTVSS VL: DIVMTQTPLSLSVTPGQPASISCKSSRSLLHSDGKTYLYWYVQKSGQPPQLLIYELSNRFSGVPDRFSGSGSRTDFTLKISRVEAEDVGVYYCMQYIEAPLTFGGGTKVEIKR | – | 8.02 | 19 |
| Ab89 (antibody, human IgG2, kappa, V domains shown, format in the assays not spelled out) VH: EVQLLESGGGVVQPGRSLRLSCAASGFTFSSYAMHWVRQAPGKGLEWVAVISYDGSNKYYADSVKGRFTISRDNSKNTLSLQMNSLRVEDTAIYYCVRGAGRGFPYGPDGFDIWGQGTMVTVSS VL: DIVMTQTPLSLSVTPGQPASISCRSSRSLLHSDGKTYVYWYVQKSGQPPQLLIYELSNRFSGVPDRFSGSGSRTDFTLKISRVEAEDVGVYYCMQYIEVPLTFGGGTKVEIKR | – | 11.1 | 27.4 |
| Ab21 (antibody, human IgG2, kappa, V domains shown, format in the assays not spelled out) VH: EVQLLESGGGVVQPGRSLRLSCAASGFTFSSYAMHWVRQAPGKGLEWVAVISYDGSNKYYADSVKGRFTISRDNSKNTLSLQMNSLRVEDTAIYYCVRGAGLGWPYGPDGFDIWGQGTMVTVSS VL: DIVMTQTPLSLSVTPGQPASISCKSSRSLLHSDGKTYVYWYVQKSGQPPQLLIYELSNRFSGVPDRFSGSGSRTDFTLKISRVEAEDVGVYYCMQYIEAPLTFGGGTKVEIKR | 1.31 | 5.54 | 9.96 |

Second part, the binder after the results:

| IC50 of pERK inhibition (AlphaScreen SureFire) in NCI-H1581 cells [1] [nM] | IC50 [2] [nM] | IC50 [3] [nM] | Binder |
| --- | --- | --- | --- |
| 3.04 | 4.52 | 23.8 | Ab23 (antibody, human IgG2, V domains shown, Format in the assays not spelled out) VH: EVQLLESGGGVVQPGRSLRLSCAASGFTFSSYAMHWVRQAPGKGLEWVAVISYDGSNKYYADSVKGRFTISRDNSKNTLSLQMNSLRVEDTAIYYCVRGAGRGLTYGPDGFDIWGQGTMVTVSS VL: DIVMTQTPLSLSVTPGQPASISCKSSRSLLHSDGKTYVYWYVQKSGQPPQLLIYELSNRFSGVPDRFSGSGSRTDFTLKISRVEAEDVGVYYCMQYIEAPLTFGGGTKVEIK |
| – | 3.18 | 13.4 | Ab65 (antibody, human IgG2, kappa, V domains shown, format in the assays not spelled out) VH: EVQLLESGGGVVQPGRSLRLSCAASGFTFSSYAMHWVRQAPGKGLEWVAVISYDGSNKYYADSVKGRFTISRDNSKNTLSLQMNSLRVEDTAIYYCVRGAGRGYPYGPDGFDIWGQGTMVTVSS VL: DIVMTQTPLSLSVTPGQPASISCTSSRSLLHSDGKTYVYWYVQKSGQPPQLLIYELSNRFSGVPDRFSGSGSRTDFTLKISRVEAEDVGVYYCMQYIEAPLTFGGGTKVEIKR |
| 2.55 | 4.29 | 11.5 | Ab32 (antibody, human IgG2, kappa, V domains shown, format in the assays not spelled out) VH: EVQLLESGGGVVQPGRSLRLSCAASGFTFSSYAMHWVRQAPGKGLEWVAVISYDGSNKYYADSVKGRFTISRDNSKNTLSLQMNSLRVEDTAIYYCVRGAGLGFTYGPDGFDIWGQGTMVTVSS VL: DIVMTQTPLSLSVTPGQPASISCTSSRSLLHSDGKTYVYWYVQKSGQPPQLLIYELSNRFSGVPDRFSGSGSRTDFTLKISRVEAEDVGVYYCMQYVEAPLTFGGGTKVEIKR |
| 2.72 | 5.21 | 22.2 | Ab31 (antibody, human IgG2, kappa, V domains shown, format in the assays not spelled out) VH: EVQLLESGGGVVQPGRSLRLSCAASGFTFSSYAMHWVRQAPGKGLEWVAVISYDGSNKYYADSVKGRFTISRDNSKNTLSLQMNSLRVEDTAIYYCVRGAGRGLTYGPDGFDIWGQGTMVTVSS VL: DIVMTQTPLSLSVTPGQPASISCTSSRSLLHSDGKTYVYWYVQKSGQPPQLLIYELSNRFSGVPDRFSGSGSRTDFTLKISRVEAEDVGVYYCMQYVEAPLTFGGGTKVEIKR |
| – | 1.77 | 11.6 | Ab72 (antibody, human IgG2, kappa, V domains shown, format in the assays not spelled out) VH: EVQLLESGGGVVQPGRSLRLSCAASGFTFSSYAMHWVRQAPGKGLEWVAVISYDGSNKYYADSVKGRFTISRDNSKNTLSLQMNSLRVEDTAIYYCVRGAGMGLTYGPDGFDIWGQGTMVTVSS VL: DIVMTQTPLSLSVTPGQPASISCKSSRSLLHSDGKTYVYWYVQKSGQPPQLLIYELSNRFSGVPDRFSGSGSRTDFTLKISRVEAEDVGVYYCMQYIEAPLTFGGGTKVEIKR |
| 0.54 | 4.19 | 5.41 | Ab29 (antibody, human IgG2, kappa, V domains shown, format in the assays not spelled out) VH: EVQLLESGGGVVQPGRSLRLSCAASGFTFSSYAMHWVRQAPGKGLEWVAVISYDGSNKYYADSVKGRFTISRDNSKNTLSLQMNSLRVEDTAIYYCVRGAGLGWPYGPDGFDIWGQGTMVTVSS VL: DIVMTQTPLSLSVTPGQPASISCTSSRSLLHSDGKTYVYWYVQKSGQPPQLLIYELSNRFSGVPDRFSGSGSRTDFTLKISRVEAEDVGVYYCMQYVEAPLTFGGGTKVEIKR |
| – | 2.7 | 10.4 | Ab82 (antibody, human IgG2, kappa, V domains shown, format in the assays not spelled out) VH: EVQLLESGGGVVQPGRSLRLSCAASGFTFSSYAMHWVRQAPGKGLEWVAVISYDGSNKYYADSVKGRFTISRDNSKNTLSLQMNSLRVEDTAIYYCVRGAGLGFPFGPDGFDIWGQGTMVTVSS VL: DIVMTQTPLSLSVTPGQPASISCKSSRSLLHSDGKTYVYWYVQKSGQPPQLLIYELSNRFSGVPDRFSGSGSRTDFTLKISRVEAEDVGVYYCMQYIEAPLTFGGGTKVEIKR |
| 1.64 | 4.95 | 11.6 | Ab25 (antibody, human IgG2, kappa, V domains shown, format in the assays not spelled out) VH: EVQLLESGGGVVQPGRSLRLSCAASGFTFSSYAMHWVRQAPGKGLEWVAVISYDGSNKYYADSVKGRFTISRDNSKNTLSLQMNSLRVEDTAIYYCVRGAGLGFTYGPDGFDIWGQGTMVTVSS VL: DIVMTQTPLSLSVTPGQPASISCKSSRSLLHSDGKTYVYWYVQKSGQPPQLLIYELSNRFSGVPDRFSGSGSRTDFTLKISRVEAEDVGVYYCMQYIEAPLTFGGGTKVEIKR |
